# Results taken from article PMC10547376.
# Target: actively translating polysomes (cytosolic ribosomes) (human (endogenous in HeLa, HT29))
# Assay: co-sedimentation
binder,measurement,value
TRAP1 (endogenous) (natural protein) STQTAEDKEEPLHSIISSTESVQGSTSKHEFQAETKKLLDIVARSLYSEKEVFIRELISNASDALEKLRHKLVSDGQALPEMEIHLQTNAEKGTITIQDTGIGMTQEELVSNLGTIARSGSKAFLDALQNQAEASSKIIGQFGVGFYSAFMVADRVEVYSRSAAPGSLGYQWLSDGSGVFEIAEASGVRTGTKIIIHLKSDCKEFSSEARVRDVVTKYSNFVSFPLYLNGRRMNTLQAIWMMDPKDVREWQHEEFYRYVAQAHDKPRYTLHYKTDAPLNIRSIFYVPDMKPSMFDVSRELGSSVALYSRKVLIQTKATDILPKWLRFIRGVVDSEDIPLNLSRELLQESALIRKLRDVLQQRLIKFFIDQSKKDAEKYAKFFEDYGLFMREGIVTATEQEVKEDIAKLLRYESSALPSGQLTSLSEYASRMRAGTRNIYYLCAPNRHLAEHSPYYEAMKKKDTEVLFCFEQFDELTLLHLREFDKKKLISVETDIVVDHYKEEKFEDRSPAAECLSEKETEELMAWMRNVLGSRVTNVKVTLRLDTHPAMVTVLEMGAARHFLRMQQLAKTQEERAQLLQPTLEINPRHALIKKLNQLRASEPGLAQLLVDQIYENAMIAAGLVDDPRAMVGRLNELLVKALERH,percent of total TRAP1 in the polysomal fractions,> 0.7%
